Measured values taken from patent US20090214547A1 (published 2009).

Biological target: T1, Pneumolysin, 57 kDa (full length w/His-tag) (Streptococcus pneumoniae, UniProt Q04IN8 2-471)
T1 construct: also called Antigen; PLY
Experiment: SPR, Mab captured on Protein-G chip

T1 sequence (Q04IN8 2-471): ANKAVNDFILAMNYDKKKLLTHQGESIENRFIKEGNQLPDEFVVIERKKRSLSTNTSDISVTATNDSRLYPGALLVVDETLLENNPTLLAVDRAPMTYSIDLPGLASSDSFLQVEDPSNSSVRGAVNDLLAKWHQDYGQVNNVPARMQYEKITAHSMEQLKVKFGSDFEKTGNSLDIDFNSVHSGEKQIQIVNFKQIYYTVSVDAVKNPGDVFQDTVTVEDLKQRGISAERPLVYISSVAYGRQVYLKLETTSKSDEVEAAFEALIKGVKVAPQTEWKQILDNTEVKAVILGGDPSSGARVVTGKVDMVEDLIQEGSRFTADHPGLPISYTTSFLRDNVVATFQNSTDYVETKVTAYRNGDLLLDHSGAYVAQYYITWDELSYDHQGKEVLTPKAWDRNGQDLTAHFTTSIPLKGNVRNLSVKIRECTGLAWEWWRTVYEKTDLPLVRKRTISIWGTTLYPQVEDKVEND

B1: 26-5F12.1 (antibody, V domains shown)
VH: VKLQESGAEVKKPGASVKVSCTASGYIFTSYAIHWVRQAPGQRLEWMGWINAGYGNTKYSQKFQGRVSITRDKSASTAYMELSSLRSEDTAVYYCARRGQQLAFDYWGQGTTVTVSS
VL: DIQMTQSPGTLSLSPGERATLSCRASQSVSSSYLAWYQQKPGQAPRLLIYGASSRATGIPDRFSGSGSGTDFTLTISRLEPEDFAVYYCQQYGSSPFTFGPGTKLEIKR
notes: also called PdB26-5F12.1
Kd: 0.82 nM | koff: 0.00043 s⁻¹ | kon: 530000 M⁻¹ s⁻¹
